According to patent publication US6613875B1, “Cyclic peptide tube” (The Scripps Research Institute, priority 1993, dated 2003):
Square brackets hold non-standard residues; d marks the D form. Peptide text beside a SMILES is read from it. dNMeA = CN[C@H](C)C(=O)O

Key:
[1] = Proton transport (collapse of pH gradient) in vesicles with entrapped 5(6)-carboxyfluorescein; format: biochemical; conditions: vesicles pH 6.5 inside, pH 5.5 outside; 25° C.; equal molar amounts of channel forming compounds
Excerpt: The proton efflux is expressed in terms of the fractional change in the fluorescence intensity of vesicle entrapped 5(6)-carboxyfluorescein as a function of time (sampling time was at 0.3 seconds interval). Equal molar amounts of channel forming compounds were used in each experiment to allow direct comparisons of channel-mediated proton transport activity. The amount of added channel forming compounds in each experiment ranged from of 2 to 20 nmoles corresponding to approximately 150 channels per liposome for the lowest concentrations to 1100 channels per liposome for the highest amount of added compounds.
Formation of transmembrane channels was also inferred from its highly efficient proton transport activity. Vesicles were prepared having pH 6.5 inside and pH 5.5 in the outside bulk solution. The collapse of the imposed pH gradient in these vesicles, upon formation of the putative transmembrane channel structure, was studied by monitoring the fluorescence intensity of an entrapped pH-sensitive dye. (V.E. Carmichael et al, in J.Am. Chem. Soc. (1989), vol. 111, pages 767-769). […] Unilamellar vesicles were prepared by the reverse-phase evaporation using DPPC, OPPC, cholestrol in the ratio of 1:1:2 in a solution containing 5(6)-carboxyfluorescein (20 mM in phosphate/saline buffer: 137 mM NaCl, 2.6 mM KCl, 6.4 mM Na2HPO4, 1.4 mM KH2PO4, pH 6.5) according to the method of F. Szoka et al. in Proc. Natl. Acad. Sci. USA (1978), vol. 75, pages 4194-4198. […] Vesicles formed in this way are approximately 150 nanometer in diameter as determined by electron microscopy. […] To the cuvett, through an injector port, […] of the channel forming compounds in DMSO was added with continuous fluorescence monitoring at 520 nm (excitation at 470 nm). The observed data were then normalized for comparison into the fractional change in fluorescence ((I0−It)/(I0−I∞)) (V. E. Carmichael et al, in J.Am. Chem. Soc. (1989), vol. 111, pages 767-769)). […]

[2] = Incorporation of peptide subunit into lipid bilayers of large unilamellar vesicles (absorption and fluorescence spectroscopy); format: physicochemical; conditions: aqueous liposomal suspensions
Excerpt: Incorporation of the peptide subunit into lipid bilayers using large unilamellar vesicles has been established by absorption and fluorescence spectroscopy. Formation of the hydrogen-bonded transmembrane channel structure in phosphatidylcholin liposomes has been supported by FT-IR spectroscopy (FIG. 24). The observed amide-I band at 1624 cm^−1 is not only similar to the carbonyl stretching frequencies found in other nanotube structures disclosed herein, but is also consistent with the infrared spectrum of gramicidin A in similar lipid bilayers. (E. Nabedryk et al in Biophys. J. (1982), vol. 38, pages 243-249. Furthermore, the observed N-H stretching frequency at 3272 cm^−1 strongly supports the formation of a tight network of hydrogen bonds with an average intersubunit distance of 4.7 Å.
The second control peptide cyclo[-(^MeN-D-Ala-Phe)4-] which has the desirable hydrophobic surface characteristics but lacks the propensity for participating in extended hydrogen bonding network, was also designed and tested for ion transport activity. The peptide design incorporates a novel N-methylation strategy on one face of the ring structure which predisposes the subunit toward a dimeric cylindrical structure (Ghadiri, M. R., Kobayashi, K., Granja, J. R., Chadha, R., and McRee, D. E. manuscript in preparation). Such a dimeric cylindrical ensemble is approximately 10 Å thick and can not span the lipid bilayer.
The ten-residue peptide subunit employed in the present study, cyclo[-Gln-(D-Leu-Trp)4-D-Leu-], is made up of largely tryptophan and leucine residues to favor its partitioning into and self-assembly in lipid bilayers. It was synthesized on solid support^5 and characterized by ^1H NMR spectroscopy and mass spectrometry. […] This has been supported by absorption and fluorescence spectrophotometry and gel permeation studies. Formation of a hydrogen bonded transmembrane channel structure in phosphatidylcholin liposomes has been established by FT-IR spectroscopy^6. […]

[3] = Dimerization (self-assembly) of N-methylated cyclic peptide in nonpolar solvents, 1H NMR / van't Hoff; format: physicochemical
Excerpt: Variable temperature NMR experiments in DMSO indicate cis-trans conformational activation barriers on the order of 16 to 17 kcal.mol^−1. However, in nonpolar solvents such as carbon tetrachloride (CCl4) or deuterochloroform (CDCl3) the peptide exists in an all trans flat-ring-shaped backbone conformation which is in dynamic equilibrium with the expected dimeric cylindrical ensemble. […] The preponderance of a flat ring-shaped backbone conformation is also indicated by the observed 7.5 Hz JNH-CaH coupling constant. Intermolecular hydrogen bonding interactions producing the stacked dimeric ensemble are signified by the expected downfield shift of the phenylalanine N—H backbone resonance from 6.98 to 8.73 ppm (JNH-CaH=8.5 Hz) and are unequivocally established by the observed exchange and NOE cross peaks in its ROESY spectrum.
Formation of a tight hydrogen bonded ensemble with an average intersubunit N—O distance of 2.95 Å is also evidenced by the appearance of an N—H stretching band in the infrared spectrum at 3309 cm^−1.
[…] […] The Ka(CCl4) reported was performed in a mixture of 84% CCl4 and 16% CDCl3 for solubility reasons.
Variable temperature studies (van't Hoff plots) establish the following thermodynamic parameters for the dimerization process in chloroform: ΔCp=−203.1 cal.K^−1.mol^−1, ΔH^0298=−11.0 kcal.mol^−1, and ΔS^0298=−23.7 e.u. which clearly supports the expected enthalpic contribution of intermolecular hydrogen bonding interactions (0.5 to 0.7 kcal.mol^−1 for each hydrogen bonding interaction) as the major driving force in the self-assembly process.
The above experiments indicate that the peptide subunit adopts a flat ring-shaped solution conformation which is energetically favored toward ring stacking and intermolecular hydrogen bonding interactions by 4.0 to 5.6 kcal.mol^−1, depending on the solvent employed. It follows then that an additive gain in free energy of stabilization is to be expected as the number of ring-stacking interactions are increased. This is particularly relevant to the self-assembled nanotubes and to the transmembrane ion channel structures that can be produced.

[4] = pH dependent solubility of peptide subunit in aqueous media; format: physicochemical
Excerpt: FIG. 17 illustrates the hydrogen bonding of molecular tubes constructed with cyclic peptide 1.
The design, synthesis, and characterization of a molecular tube, i.e., a cyclic peptide tube or “organic nanotube,” is described. A rationally designed 24-membered ring peptide structure can be constructed and shown to undergo a proton-triggered self-assembly to produce tubular structures hundreds of nanometers long, with internal van der Waals diameter of 7 to 8 Å. Formation of tubular structures is established by Electron Microscopy (EM), electron diffraction studies, and Fourier Transformed Infrared Spectroscopy (FT-IR). A three-dimensional model of the molecular tube consistent with the experimental observations is also presented. As opposed to the recently identified closed concentric graphite tubes, cyclic peptide tubes, by virtue of the cyclic nature of their components, are open ended structures and have uniform shape and internal diameter, e.g., Tsang, S. C. et al. (1993), Nature 362, 520-522 and Ajayan, P. M. et al. (1993), Nature 362, 522-525 (1993). The proton-triggered self-assembly process described herein is a highly convergent approach in which numerous ring-shaped peptide subunits interact through an extensive network of hydrogen bonds to form molecular tube structures. Example I features an eight-residue cyclic peptide with the following sequence: cyclo[-(D-Ala-Glu-D-Ala-Gln)2-]. (Sequence No.: 1) In designing the subunit, it is shown that cyclic peptides with an even number of alternating D- and L-amino acids can adopt or sample a low energy ring-shaped flat conformation in which all backbone amide functionalities lie approximately perpendicular to the plane of the structure. In this conformation, subunits can stack in an anti-parallel fashion and participate in backbone-backbone intermolecular hydrogen bonding to furnish a contiguous β-sheet structure. Moreover, because of the alternating D- and L-amino acid sequence, peptide side chains must \necessarily lie on the exterior of the ensemble thereby creating the desired hollow tubular core structure. […]

Compound	apparent ion (proton) transport activity [1]	partitioning / incorporation into lipid bilayers [2]	association constant Ka(CCl4) of dimerization ([3]; 293 K, mixture of 84% CCl4 and 16% CDCl3, lower limit (included water))	ΔCp of dimerization ([3]; chloroform, van't Hoff plots)	ΔH^0298 of dimerization ([3]; chloroform, van't Hoff plots)	ΔS^0298 of dimerization ([3]; chloroform, van't Hoff plots)	association constant Ka(CDCl3) of dimerization ([3]; water rigorously excluded (4 Å molecular sieves))	solubility in aqueous media ([4]; acidic / low pH)	solubility in aqueous media ([4]; acidic / low pH, listed as cyclo[-(D-Ala-Glu-D-Ala-Gln)2-])	solubility in aqueous media ([4]; high (alkaline) pH)
cyclo[-(Gln-D-Leu)4-] (cyclo(Q[dL]Q[dL]Q[dL]Q[dL]); SMILES CC(C)C[C@H]1NC(=O)[C@H](CCC(N)=O)NC(=O)[C@@H](CC(C)C)NC(=O)[C@H](CCC(N)=O)NC(=O)[C@@H](CC(C)C)NC(=O)[C@H](CCC(N)=O)NC(=O)[C@@H](CC(C)C)NC(=O)[C@H](CCC(N)=O)NC1=O) [cyclo[-(Gln-D-Leu)4], control peptide lacking surface characteristics for partitioning into lipid bilayers]	does not display any ion transport activity	–	–	–	–	–	–	–	–	–
cyclo[-(L-Phe-D-^Me NAla)4-] (cyclo(F[dNMeA]F[dNMeA]F[dNMeA]F[dNMeA]); SMILES C[C@@H]1C(=O)N[C@@H](Cc2ccccc2)C(=O)N(C)[C@H](C)C(=O)N[C@@H](Cc2ccccc2)C(=O)N(C)[C@H](C)C(=O)N[C@@H](Cc2ccccc2)C(=O)N(C)[C@H](C)C(=O)N[C@@H](Cc2ccccc2)C(=O)N1C) [N-methylated cap subunit / second control peptide, forms dimeric cylindrical structure]	does not promote proton transport activity	partition effectively	14000 M⁻¹	−203.1 cal.K^−1.mol^−1	-11.0 kcal/mol	−23.7 e.u.	2540 M⁻¹	–	–	–
C[C@H]1NC(=O)[C@H](CCC(N)=O)NC(=O)[C@@H](C)NC(=O)[C@H](CCC(=O)O)NC(=O)[C@@H](C)NC(=O)[C@H](CCC(N)=O)NC(=O)[C@@H](C)NC(=O)[C@H](CCC(=O)O)NC1=O [cyclic peptide 1, cyclo[-(Gln-D-Ala-Glu-D-Ala)2-]] (cyclo(Q[dA]E[dA]Q[dA]E[dA]))	–	–	–	–	–	–	–	lower water solubility	lower solubility	high water solubility
